From patent US20190060404A1 (published 2019) come the findings set out here.

One assay deals with FGFR1-Fc (UniProt P11362). The assay is described as follows: SPR, FGFR1-Fc fixed on the sensor, VEGF-B167 added.
The target of a further assay is human FGFR2-Fc (human) (UniProt P21802). Description: SPR, FGFR2-Fc fixed on the sensor, VEGF-B167 added. On the technique in general: SPR reads the build-up and loss of mass on a sensor chip optically.
Assay [1] deals with T1, VEGFR2 of C57B16 mouse retina and brain tissue (mouse, UniProt P35918 20-1345, limits assumed).
T1 construct: Endogenous protein in tissue lysate
The assay is described as follows: co-immunoprecipitation with anti-FGFR2 antibody from mouse brain and retinal tissue. The method, then: (§1) Co-immunoprecipitation assay: brain tissues and retinae of the C57B16 mice were separated, and were homogenated after added with RIPA buffer comprising protease and phosphatase inhibitor. Supernatant was obtained by centrifuging. After protein quantification, the supernatant was incubated with anti-FGFR1 antibody at 4° C. overnight. Magnetic beads combined with A/G protein were added to capture the antibody complex. 10% PAGE electrophoresis and transfer to a PVDF film were performed successively for the complex, then the complex was incubated with the primary antibody of VEGFR1, VEGFR2 or FGFR1, and was further incubated with HRP-labeled secondary antibody, ECL luminescence reagent was added to display color in the end.
Co-Immunoprecipitation: brain tissue and retinae were extracted from the C57B16 mice. The C57B16 mice were intravitreally injected with BSA (500 ng/eye), FGF2 (100 ng/eye) or VEGF-B₁₆₇ (500 ng/eye), and their retinae were extracted 1 hour after the injection. The brain tissue and retinae, and the retinae from the injected C57B16 mice were treated by the operational procedure described in Embodiment 5, and incubated with anti-FGFR2 antibody for co-immunoprecipitation (with VEGFR1 or VEGFR2).

In assay [2] the target is T1, VEGFR2 of C57B16 mouse retina and brain …. The assay is described as follows: co-immunoprecipitation with anti-FGFR1 antibody from mouse retina and brain tissue. As to the method:
as §1

T1 sequence (P35918 20-1345 limits assumed, one chain of several): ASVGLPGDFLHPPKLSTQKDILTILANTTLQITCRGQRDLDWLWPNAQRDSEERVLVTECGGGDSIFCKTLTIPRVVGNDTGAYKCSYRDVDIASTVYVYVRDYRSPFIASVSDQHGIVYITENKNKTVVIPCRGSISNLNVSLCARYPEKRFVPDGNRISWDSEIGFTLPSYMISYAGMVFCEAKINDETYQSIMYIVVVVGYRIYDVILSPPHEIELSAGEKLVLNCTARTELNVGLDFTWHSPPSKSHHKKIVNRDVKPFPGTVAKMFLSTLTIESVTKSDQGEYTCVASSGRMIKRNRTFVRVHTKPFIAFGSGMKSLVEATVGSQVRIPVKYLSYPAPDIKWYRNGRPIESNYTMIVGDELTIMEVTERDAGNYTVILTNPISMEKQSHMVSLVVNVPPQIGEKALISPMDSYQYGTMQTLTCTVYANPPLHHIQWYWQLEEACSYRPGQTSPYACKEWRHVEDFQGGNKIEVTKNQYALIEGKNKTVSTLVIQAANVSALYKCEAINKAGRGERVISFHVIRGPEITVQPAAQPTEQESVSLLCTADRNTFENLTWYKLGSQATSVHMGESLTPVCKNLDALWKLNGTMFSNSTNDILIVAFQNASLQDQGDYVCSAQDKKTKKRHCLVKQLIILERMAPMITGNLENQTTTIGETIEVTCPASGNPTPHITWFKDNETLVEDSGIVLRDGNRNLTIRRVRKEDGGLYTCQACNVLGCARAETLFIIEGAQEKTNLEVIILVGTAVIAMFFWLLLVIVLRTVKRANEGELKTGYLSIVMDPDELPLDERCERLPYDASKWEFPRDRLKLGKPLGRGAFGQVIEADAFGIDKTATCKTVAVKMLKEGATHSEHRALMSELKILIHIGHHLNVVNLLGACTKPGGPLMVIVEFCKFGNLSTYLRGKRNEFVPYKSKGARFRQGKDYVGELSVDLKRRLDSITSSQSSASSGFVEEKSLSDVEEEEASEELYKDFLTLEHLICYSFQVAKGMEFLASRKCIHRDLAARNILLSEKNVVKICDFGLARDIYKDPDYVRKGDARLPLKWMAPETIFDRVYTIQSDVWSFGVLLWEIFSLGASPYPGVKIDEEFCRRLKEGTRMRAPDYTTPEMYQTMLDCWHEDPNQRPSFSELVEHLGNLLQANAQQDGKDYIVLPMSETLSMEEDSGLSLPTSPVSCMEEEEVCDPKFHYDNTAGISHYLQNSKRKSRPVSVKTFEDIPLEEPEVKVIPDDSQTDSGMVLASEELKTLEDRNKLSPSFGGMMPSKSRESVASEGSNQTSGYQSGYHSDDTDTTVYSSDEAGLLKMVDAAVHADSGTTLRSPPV
FGFR1-Fc, sequence (P11362 22-376 limits assumed): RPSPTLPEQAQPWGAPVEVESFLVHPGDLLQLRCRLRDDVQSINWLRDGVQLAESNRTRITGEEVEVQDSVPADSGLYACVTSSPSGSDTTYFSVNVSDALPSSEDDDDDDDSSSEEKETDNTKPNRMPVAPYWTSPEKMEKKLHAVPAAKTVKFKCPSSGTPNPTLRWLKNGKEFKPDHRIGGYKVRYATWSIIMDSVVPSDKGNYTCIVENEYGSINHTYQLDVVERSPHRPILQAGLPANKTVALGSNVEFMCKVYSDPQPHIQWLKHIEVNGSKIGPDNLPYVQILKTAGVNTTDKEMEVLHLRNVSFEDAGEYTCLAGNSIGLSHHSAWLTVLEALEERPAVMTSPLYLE

In the case of “VEGF-B167 (from UniProt P49765 22-207) (ligand)”, the figures for the Kd with FGFR1-Fc and in the assay with human FGFR2-Fc (human) were 15 nM and 112 nM, respectively.

B1: FGFR2 of C57B16 mouse tissue and mouse primary SMC (receptor, UniProt P21803 22-821, looked up)
chain: RPSFSLVEDTTLEPEEPPTKYQISQPEAYVVAPGESLELQCMLKDAAVISWTKDGVHLGPNNRTVLIGEYLQIKGATPRDSGLYACTAARTVDSETWIFMVNVTDAISSGDDEDDTDSSEDVVSENRSNQRAPYWTNTEKMEKRLHACPAANTVKFRCPAGGNPTSTMRWLKNGKEFKQEHRIGGYKVRNQHWSLIMESVVPSDKGNYTCLVENEYGSINHTYHLDVVERSPHRPILQAGLPANASTVVGGDVEFVCKVYSDAQPHIQWIKHVEKNGSKNGPDGLPYLKVLKAAGVNTTDKEIEVLYIRNVTFEDAGEYTCLAGNSIGISFHSAWLTVLPAPVREKEITASPDYLEIAIYCIGVFLIACMVVTVIFCRMKTTTKKPDFSSQPAVHKLTKRIPLRRQVTVSAESSSSMNSNTPLVRITTRLSSTADTPMLAGVSEYELPEDPKWEFPRDKLTLGKPLGEGCFGQVVMAEAVGIDKDKPKEAVTVAVKMLKDDATEKDLSDLVSEMEMMKMIGKHKNIINLLGACTQDGPLYVIVEYASKGNLREYLRARRPPGMEYSYDINRVPEEQMTFKDLVSCTYQLARGMEYLASQKCIHRDLAARNVLVTENNVMKIADFGLARDINNIDYYKKTTNGRLPVKWMAPEALFDRVYTHQSDVWSFGVLMWEIFTLGGSPYPGIPVEELFKLLKEGHRMDKPTNCTNELYMMMRDCWHAVPSQRPTFKQLVEDLDRILTLTTNEEYLDLTQPLEQYSPSYPDTSSSCSSGDDSVFSPDPMPYEPCLPQYPHINGSVKT
notes: Endogenous protein in tissue lysate (co-immunoprecipitation) or on cells (proximity ligation assay)
In the case of B1, the binding result in assay [1] was “no binding”.

B2: FGFR1 of C57B16 mouse retina and brain tissue (receptor, UniProt P16092 22-822, looked up)
chain: RPAPTLPEQAQPWGVPVEVESLLVHPGDLLQLRCRLRDDVQSINWLRDGVQLVESNRTRITGEEVEVRDSIPADSGLYACVTSSPSGSDTTYFSVNVSDALPSSEDDDDDDDSSSEEKETDNTKPNRRPVAPYWTSPEKMEKKLHAVPAAKTVKFKCPSSGTPNPTLRWLKNGKEFKPDHRIGGYKVRYATWSIIMDSVVPSDKGNYTCIVENEYGSINHTYQLDVVERSPHRPILQAGLPANKTVALGSNVEFMCKVYSDPQPHIQWLKHIEVNGSKIGPDNLPYVQILKTAGVNTTDKEMEVLHLRNVSFEDAGEYTCLAGNSIGLSHHSAWLTVLEALEERPAVMTSPLYLEIIIYCTGAFLISCMLGSVIIYKMKSGTKKSDFHSQMAVHKLAKSIPLRRQVTVSADSSASMNSGVLLVRPSRLSSSGTPMLAGVSEYELPEDPRWELPRDRLVLGKPLGEGCFGQVVLAEAIGLDKDKPNRVTKVAVKMLKSDATEKDLSDLISEMEMMKMIGKHKNIINLLGACTQDGPLYVIVEYASKGNLREYLQARRPPGLEYCYNPSHNPEEQLSSKDLVSCAYQVARGMEYLASKKCIHRDLAARNVLVTEDNVMKIADFGLARDIHHIDYYKKTTNGRLPVKWMAPEALFDRIYTHQSDVWSFGVLLWEIFTLGGSPYPGVPVEELFKLLKEGHRMDKPSNCTNELYMMMRDCWHAVPSQRPTFKQLVEDLDRIVALTSNQEYLDLSIPLDQYSPSFPDTRSSTCSSGEDSVFSHEPLPEEPCLPRHPTQLANSGLKRR
notes: Endogenous protein in tissue lysate
Take B2: the binding result in assay [2] is listed as “no binding”.

As usually defined, the Kd is the concentration at which binding is half-saturated. The low end stands for tighter binding, the high end for weaker binding.
